From patent US20260166131A1, “METHOD FOR PROMOTING PATHOLOGICAL TDP-43 PROTEIN DEGRADATION, AND DRUG” (TALENGEN INTERNATIONAL LIMITED, priority 2022, published 2026)
Entries after “also recorded” stand apart in the source; their conditions may differ.

Key:
TDP-43 = TDP-43 (Mus musculus, UniProt Q921F2); assay: Immunofluorescence co-localization staining of plasminogen and TDP-43 in gluteal muscle tissue of SOD1-G93A mice; assay type: in vivo; set-up: from tissue; host or cells: mouse spinal cord, gluteal muscle, brain, kidney cell nuclei; details: 1 mg/mouse tail vein every day
Chain of TDP-43 (Q921F2 whole entry): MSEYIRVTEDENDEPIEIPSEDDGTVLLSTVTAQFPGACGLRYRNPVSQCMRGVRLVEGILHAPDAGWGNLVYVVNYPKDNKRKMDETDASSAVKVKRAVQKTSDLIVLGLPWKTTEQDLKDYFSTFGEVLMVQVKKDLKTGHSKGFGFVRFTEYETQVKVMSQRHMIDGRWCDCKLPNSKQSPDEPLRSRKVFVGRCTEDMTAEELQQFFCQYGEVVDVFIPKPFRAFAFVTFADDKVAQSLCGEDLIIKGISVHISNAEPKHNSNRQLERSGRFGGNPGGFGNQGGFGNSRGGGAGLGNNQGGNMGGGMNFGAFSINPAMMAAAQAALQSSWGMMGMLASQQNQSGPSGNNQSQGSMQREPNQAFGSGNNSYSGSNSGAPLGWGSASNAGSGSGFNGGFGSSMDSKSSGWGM
Method: Five wild-type male mice and nine male SOD1-G93A mice of similar week-age were selected. Wild-type mice served as the blank control group, and SOD1-G93A mice were observed and recorded from the time of hind leg tremor when they became ill at week 14, and the onset time of each mouse was recorded. Administering to mice 14 days after the onset of the disease. All mice were randomly divided into a vehicle group and a plasminogen administration group according to the onset of the disease: 5 mice in the vehicle group, which were injected with 0.1 ml of vehicle (sodium citrate buffer)/mouse by tail vein every day; 4 mice in the plasminogen administration group, which were injected with 1 mg of plasminogen/0.1 ml of vehicle/mouse by tail vein every day. The vehicle and plasminogen were administered continuously under SPF environment, and the samples were collected at the near-death stage. The longest administration was 61 days. The gluteal muscle tissue collected was fixed in formalin fixative solution. The fixed tissues were dehydrated with gradient alcohol and transparentized with xylene before being embedded in paraffin. The thickness of tissue sections was 3 μm, and the sections were dewaxed and rehydrated and then washed once. The sections were immersed in antigen retrieval working solution (0.01 M sodium citrate buffer) to perform microwave retrieval: preheating for 5 minutes, high heating for 2 minutes, and low heating for 15 minutes. […] The green fluorescence color development of the corresponding anti-plasminogen secondary antibody was performed according to the instructions of the XTSA520 IHC kit (Alpha X Biotech, AXT6202500), washing 3 times with PBS for 5 minutes each time. […] The red fluorescence color development of the corresponding anti-TDP-43 secondary antibody was performed according to the instructions of the XTSA620 IHC kit (Alpha X Biotech, AXT6502500), washing 3 times with PBS for 5 minutes each time. […]

[1] = Plasmin activity in brain tissue of MPTP/LPS Parkinson's model mice (enzyme substrate kinetic method); assay type: in vivo, mouse; details: MPTP + LPS Parkinson's model mice, 50 mg/kg tail vein single dose, 2 hours, vs vehicle group, P<0.05
Method: Fifteen female mice were taken to weigh before modeling. […] All mice in the model group were intraperitoneally injected with 5 mg/mL MPTP solution at 35 mg/kg/mouse, and the mice in the blank control group were intraperitoneally injected with 7 mL/kg normal saline. The modeling time was set at 9 am every day, and the injections were continued for 5 days. 24 hours after the last MPTP injection, all mice were weighed and injected intraperitoneally with 5 mg/kg LPS solution. […] The plasmin activity in brain tissue homogenate was detected by enzyme substrate kinetic method. […] 85 μL/well of seven different concentrations of standard solution, blank, and sample were added to the ELISA plate in sequence, and then 15 μL of 20 mM S-2251 solution (Chromogenix, 82033239) was added to each well to incubate at 37° C. Starting from 0 min of reaction, the A405 absorbance value was read in a multifunctional microplate reader every 5 min until the reaction time was 90 min. All reactions were fitted with a straight line by time and absorbance, and the slope of the straight line was the reaction rate of the standard/sample (ΔA405/min). Finally, the potency value of the standard substance and ΔA405/min were used to create a standard curve to calculate the potency of the measured samples.

[2] = Plasminogen level (ELISA) and plasmin activity (enzyme substrate method) in brain homogenate of LPS-treated SOD1-G93A mice; assay type: in vivo, mouse; details: LPS 5 mg/kg intratracheal, 50 mg/kg tail vein single dose, 6 hours, vs vehicle group
Method: Eight 22-week-age SOD1-G93A mice were randomly divided into two groups: a vehicle group and a plasminogen group, with 4 mice in each group. 2.5 mg/mL bacterial lipopolysaccharide (LPS) (Beijing Solebow Technology Co., Ltd., L8880) was administered to the mice in the vehicle group and the plasminogen group via intratracheal instillation, with a modeling dose of 5 mg/kg. Four C57 mice of the same age were selected as normal control mice. Administration began 3 days after LPS treatment. […] The mice were killed 6 hours after the single administration, and the brain tissues were obtained. After homogenization, the plasminogen level was detected by ELISA, and the plasmin activity was detected by enzyme substrate method.

[3] = Spinal cord tissue plasminogen level after tail vein injection in FAD mice (ELISA)
Method: Twenty-seven 16-week-age B6SJL-Tg (APPSwFlLon, PSEN1*M146L* L286V) 6799Vas Mmjax (Stock Number: 034840) (FAD mice for short) (breeding mice were purchased from Jackson Laboratory, USA) were randomly divided into three groups: three mice in vehicle control group, 12 mice in 6 mg/kg plasminogen group, and 12 mice in 50 mg/kg plasminogen group. The mice in the vehicle control group were injected with vehicle at 5 ml/kg by tail vein, the mice in the 6 mg/kg plasminogen group were injected with plasminogen (1.2 mg/ml) at 6 mg/kg body weight by tail vein, and the mice in the 50 mg/kg plasminogen group were injected with plasminogen (10 mg/ml) at 6 mg/kg body weight by tail vein. […] Three mice in the 6 mg/kg plasminogen group and three mice in the 50 mg/kg plasminogen group were killed 2, 6, 12 and 24 hours after administration, and their blood was collected.
Spinal cord tissue was obtained from the mice sacrificed in Example 21, homogenizing and detecting according to the instructions of Human Plasminogen ELISA Kit (manufacturer: AssayMax, catalog number: EP1200-1). The concentration of each sample was calibrated by using human plasminogen working standard as the internal standard. The calibrated concentration was divided by the total protein concentration to calculate the amount of plasminogen per unit of total protein in each sample and perform statistical analysis.

[4] = Brain tissue plasminogen level in MPTP Parkinson's model mice (ELISA); assay type: in vivo, mouse; details: 50 mg/kg tail vein

B1: plasminogen: human plasminogen purified from human donor plasma, in which human Lys-plasminogen and Glu-plasminogen are >98% (protein)
chain: KVYLSECKTGNGKNYRGTMSKTKNGITCQKWSSTSPHRPRFSPATHPSEGLEENYCRNPDNDPQGPWCYTTDPEKRYDYCDILECEEECMHCSGENYDGKISKTMSGLECQAWDSQSPHAHGYIPSKFPNKNLKKNYCRNPDRELRPWCFTTDPNKRWELCDIPRCTTPPPSSGPTYQCLKGTGENYRGNVAVTVSGHTCQHWSAQTPHTHNRTPENFPCKNLDENYCRNPDGKRAPWCHTTNSQVRWEYCKIPSCDSSPVSTEQLAPTAPPELTPVVQDCYHGDGQSYRGTSSTTTTGKKCQSWSSMTPHRHQKTPENYPNAGLTMNYCRNPDADKGPWCFTTDPSVRWEYCNLKKCSGTEASVVAPPPVVLLPDVETPSEEDCMFGNGKGYRGKRATTVTGTPCQDWAAQEPHRHSIFTPETNPRAGLEKNYCRNPDGDVGGPWCYTTNPRKLYDYCDVPQCAAPSFDCGKPQVEPKKCPGRVVGGCVAHPHSWPWQVSLRTRFGMHFCGGTLISPEWVLTAAHCLEKSPRPSSYKVILGAHQEVNLEPHVQEIEVSRLFLEPTRKDIALLKLSSPAVITDKVIPACLPSPNYVVADRTECFITGWGETQGTFGAGLLKEAQLPVIENKVCNRYEFLNGRVQSTELCAGHLAGGTDSCQGDSGGPLVCFEKDKYILQGVTSWGLGCARPNKPGVYVRVSRFVTWIEGVMRNN
For B1, the “co-localization of plasminogen with TDP-43 in muscle tissue (cytoplasm and nucleus)” value (TDP-43) was “co-localizes with TDP-43”, the “subcellular presence of plasminogen in muscle tissue” value (TDP-43) was “present in the cytoplasm (as indicated by Δ) and in the nucleus; also recorded: present in the cytoplasm (as indicated by Δ) and the nucleus” and the “positive staining of plasminogen in muscle tissue” value (TDP-43; up to 61 days, vs vehicle group) was “significantly more”. The “level of plasmin activity in the brain tissue” value [1] was “significantly higher”, the “plasmin activity in brain tissue homogenate” value [2] was “significantly higher” and the “plasminogen level in brain tissue homogenate” value [2] was “significantly higher”. The “ratio of plasminogen in spinal cord tissue to plasminogen in blood” value (“ratio of plasminogen” for short) ([3]; 6 mg/kg plasminogen group, 2 hours) was 0.93%, the “ratio of plasminogen” value ([3]; 6 mg/kg plasminogen group, 6 hours) was 1.62% and the “ratio of plasminogen” value ([3]; 50 mg/kg plasminogen group, 2 hours) was 0.33%. The “ratio of plasminogen” value ([3]; 50 mg/kg plasminogen group, 6 hours) was 0.40%, the “ratio of plasminogen” value ([3]; 50 mg/kg plasminogen group, 12 hours) was 1.56% and the “plasminogen level in spinal cord tissue, 50 mg/kg group compared with 6 mg/kg group” value ([3]; tail vein) was “significantly higher”. The “time within which plasminogen is almost completely metabolized (spinal cord tissue)” value ([3]; tail vein 50 mg/kg and 6 mg/kg) was 12 to 24 h, the “plasminogen level in spinal cord tissue” value ([3]; tail vein injection of 6 mg/kg, 6 mg/kg) was “increases significantly” and the “plasminogen level in spinal cord tissue” value ([3]; tail vein injection of 50 mg/kg, 50 mg/kg) was “increases significantly”. For the same molecule, the “time within which plasminogen is almost completely metabolized (brain tissue)” value [4] was 12 to 24 h and the “plasminogen level in the brain tissue” value ([4]; vs vehicle group) was “significantly higher”.
